Key:
Assay in all cases: pulldown
[1] = target: T1, LmjF.30.1110 (Leishmania major) (UniProt Q4Q7J2); settings: 20 nM protein, 1.5 uM RNA pool; 20 mM HEPES pH 7.8, 70 mM KCl, 10 mM NaCl, 10% glycerol, 2 mM DTT, 0.1 ug/uL BSA; 30 min, 4 C
T1 sequence: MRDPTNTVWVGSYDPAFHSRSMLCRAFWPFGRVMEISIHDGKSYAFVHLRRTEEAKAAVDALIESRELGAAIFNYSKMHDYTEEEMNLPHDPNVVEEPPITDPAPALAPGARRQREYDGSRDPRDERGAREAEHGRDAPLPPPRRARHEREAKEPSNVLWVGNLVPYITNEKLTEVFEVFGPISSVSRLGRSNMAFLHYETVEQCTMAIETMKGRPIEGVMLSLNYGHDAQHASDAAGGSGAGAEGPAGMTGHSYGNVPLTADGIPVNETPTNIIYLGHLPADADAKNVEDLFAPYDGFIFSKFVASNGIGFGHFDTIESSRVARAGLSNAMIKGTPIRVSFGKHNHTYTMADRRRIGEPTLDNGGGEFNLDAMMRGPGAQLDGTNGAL

[2] = target: T2, sart3 (Tetraodon nigroviridis) (UniProt H3DEK9); settings: 20 nM protein, 1.5 uM RNA pool; 20 mM HEPES pH 7.8, 70 mM KCl, 10 mM NaCl, 10% glycerol, 2 mM DTT, 0.1 ug/uL BSA; 30 min, 4 C
T2 sequence: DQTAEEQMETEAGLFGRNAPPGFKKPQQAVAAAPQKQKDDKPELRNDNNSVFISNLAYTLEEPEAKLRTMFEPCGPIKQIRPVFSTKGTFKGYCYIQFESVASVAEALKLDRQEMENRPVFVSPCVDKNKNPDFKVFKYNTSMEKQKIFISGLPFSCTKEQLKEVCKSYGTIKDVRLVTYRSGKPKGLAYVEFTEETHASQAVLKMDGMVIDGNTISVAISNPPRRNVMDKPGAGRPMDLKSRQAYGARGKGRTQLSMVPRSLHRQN

[3] = target: T3, Tb927.7.320 T9S (Trypanosoma brucei) (UniProt Q57U22); settings: 20 nM protein, 1.5 uM RNA pool; 20 mM HEPES pH 7.8, 70 mM KCl, 10 mM NaCl, 10% glycerol, 2 mM DTT, 0.1 ug/uL BSA; 30 min, 4 C
T3 sequence: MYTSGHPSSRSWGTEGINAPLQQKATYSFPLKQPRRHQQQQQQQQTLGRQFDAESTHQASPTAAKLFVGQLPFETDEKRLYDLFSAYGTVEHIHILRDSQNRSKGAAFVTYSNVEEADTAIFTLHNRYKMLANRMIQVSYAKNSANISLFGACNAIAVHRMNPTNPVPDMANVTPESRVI

[4] = target: T4, LmjF.29.1370 (Leishmania major) (UniProt E9ADZ6); settings: 20 nM protein, 1.5 uM RNA pool; 20 mM HEPES pH 7.8, 70 mM KCl, 10 mM NaCl, 10% glycerol, 2 mM DTT, 0.1 ug/uL BSA; 30 min, 4 C
T4 sequence: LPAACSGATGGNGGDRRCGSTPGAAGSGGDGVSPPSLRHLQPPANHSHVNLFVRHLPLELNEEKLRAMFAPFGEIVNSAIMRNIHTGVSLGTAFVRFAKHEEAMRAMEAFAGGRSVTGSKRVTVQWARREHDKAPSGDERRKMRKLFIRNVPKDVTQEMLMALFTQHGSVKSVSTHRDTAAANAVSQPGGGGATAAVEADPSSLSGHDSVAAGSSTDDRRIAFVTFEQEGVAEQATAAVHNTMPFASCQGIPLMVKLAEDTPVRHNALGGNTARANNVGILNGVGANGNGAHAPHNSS

[5] = target: RBPMS2 (Monodelphis domestica) (UniProt A0A5F8GJ20); settings: 20 nM protein, 1.5 uM RNA pool; 20 mM HEPES pH 7.8, 70 mM KCl, 10 mM NaCl, 10% glycerol, 2 mM DTT, 0.1 ug/uL BSA; 30 min, 4 C
[6] = target: lark (Drosophila melanogaster) (UniProt Q94901); settings: 20 nM protein, 1.5 uM RNA pool; 20 mM HEPES pH 7.8, 70 mM KCl, 10 mM NaCl, 10% glycerol, 2 mM DTT, 0.1 ug/uL BSA; 30 min, 4 C (protocol of this paper; not …); cited from earlier work
KHDRBS3 (Homo sapiens) = target: T5, KHDRBS3 (Homo sapiens) (UniProt O75525); settings: 20 nM protein, 1.5 uM RNA pool; 20 mM HEPES pH 7.8, 70 mM KCl, 10 mM NaCl, 10% glycerol, 2 mM DTT, 0.1 ug/uL BSA; 30 min, 4 C (protocol of this paper; not …); cited from earlier work
T5 sequence: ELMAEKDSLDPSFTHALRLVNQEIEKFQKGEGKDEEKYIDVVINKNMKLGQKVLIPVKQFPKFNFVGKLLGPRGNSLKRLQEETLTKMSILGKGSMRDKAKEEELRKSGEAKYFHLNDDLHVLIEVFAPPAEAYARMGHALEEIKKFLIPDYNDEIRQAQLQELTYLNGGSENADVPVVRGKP

[7] = target: T6, LmjF.24.1570 (Leishmania major) (UniProt Q4QAH4); settings: 20 nM protein, 1.5 uM RNA pool; 20 mM HEPES pH 7.8, 70 mM KCl, 10 mM NaCl, 10% glycerol, 2 mM DTT, 0.1 ug/uL BSA; 30 min, 4 C
T6 sequence: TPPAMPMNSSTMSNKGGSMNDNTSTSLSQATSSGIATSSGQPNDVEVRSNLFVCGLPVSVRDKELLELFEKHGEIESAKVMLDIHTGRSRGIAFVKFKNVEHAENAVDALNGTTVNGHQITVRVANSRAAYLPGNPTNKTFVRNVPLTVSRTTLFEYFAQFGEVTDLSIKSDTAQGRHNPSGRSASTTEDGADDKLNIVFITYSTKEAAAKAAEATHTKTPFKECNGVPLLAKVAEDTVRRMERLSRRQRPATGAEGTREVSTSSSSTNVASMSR

[8] = target: T7, CG4806 (Drosophila melanogaster) (UniProt Q3ZAN6); settings: 20 nM protein, 1.5 uM RNA pool; 20 mM HEPES pH 7.8, 70 mM KCl, 10 mM NaCl, 10% glycerol, 2 mM DTT, 0.1 ug/uL BSA; 30 min, 4 C
T7 sequence: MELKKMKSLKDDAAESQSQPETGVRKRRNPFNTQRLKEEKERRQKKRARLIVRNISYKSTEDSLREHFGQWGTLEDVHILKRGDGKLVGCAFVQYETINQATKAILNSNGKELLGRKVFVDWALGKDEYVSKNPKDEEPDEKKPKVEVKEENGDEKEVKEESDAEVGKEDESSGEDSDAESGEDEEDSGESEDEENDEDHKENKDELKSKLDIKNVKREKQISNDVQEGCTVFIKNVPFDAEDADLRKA

Sequence of RBPMS2 (Monodelphis domestica) (A0A5F8GJ20 entry or part of it): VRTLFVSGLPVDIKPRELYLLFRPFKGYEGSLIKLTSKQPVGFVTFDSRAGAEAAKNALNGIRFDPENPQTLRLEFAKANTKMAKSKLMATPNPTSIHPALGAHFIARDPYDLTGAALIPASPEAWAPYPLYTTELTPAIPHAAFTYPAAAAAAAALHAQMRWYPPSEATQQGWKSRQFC
Sequence of lark (Drosophila melanogaster) (Q94901 1-207): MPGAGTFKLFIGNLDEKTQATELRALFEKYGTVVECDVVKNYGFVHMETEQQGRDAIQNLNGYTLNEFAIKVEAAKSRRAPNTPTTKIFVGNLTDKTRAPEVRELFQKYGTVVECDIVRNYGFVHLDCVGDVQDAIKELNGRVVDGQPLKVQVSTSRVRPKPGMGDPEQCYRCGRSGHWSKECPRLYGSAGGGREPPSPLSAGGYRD

## AUGAUG [RNAcompete motif RNCMPT00763]
[1]
  binding signal (z-score (mean of top ten 7-mers)): 10.7

## AGAGAAG [RNAcompete motif RNCMPT00774]
[2]
  binding signal (z-score (mean of top ten 7-mers)): 11.5

## UUUGCUU [RNAcompete motif RNCMPT00751]
[3]
  binding signal (z-score (mean of top ten 7-mers)): 12.5

## CAUAGU [RNAcompete motif RNCMPT00762]
[4]
  binding signal (z-score (mean of top ten 7-mers)): 29.8

## ANCACG [RNAcompete motif RNCMPT00757]
[5]
  binding signal (z-score (mean of top ten 7-mers)): 8.74

## UCGCGCG [RNAcompete motif RNCMPT00097]
[6]
  binding signal (z-score (mean of top ten 7-mers)): 15.5

## GAUAAAC [RNAcompete motif RNCMPT00034]
KHDRBS3 (Homo sapiens)
  binding signal (z-score (mean of top ten 7-mers)): 9.52

## UAUACU [RNAcompete motif RNCMPT00761]
[7]
  binding signal (z-score (mean of top ten 7-mers)): 22.5

## CUGUAGUA [RNAcompete motif RNCMPT00784]
[8]
  binding signal (z-score (mean of top ten 7-mers)): 7.2
